Measurements from patent US20030219446A1.
pIC50: −log10 of the molar value.

Assays:
[1] = molecular target: CD28Ig fusion protein (human) (UniProt P10747); assay: plate binding assay, ^125I-B7Ig (24 nM) on immobilized CD28Ig
[2] = molecular target: CD28Ig fusion protein (human) (UniProt P10747); assay: competition of ^125I-B7Ig binding to immobilized CD28Ig by unlabeled B7Ig
CD28 receptor (human) [3] = molecular target: CD28 receptor (human) (UniProt P10747); assay: cell-based or functional assay
CD28 receptor (human) [4] = molecular target: CD28 receptor (human) (UniProt P10747); assay: flow cytometry, FITC-conjugated mAb 9.3 on CD28^+ CHO cells
CD28 receptor (human) [5] = molecular target: CD28 receptor (human) (UniProt P10747); assay: flow cytometry, FITC-conjugated mAb 9.3 on phytohemagglutinin-stimulated T cells
[6] = molecular target: CD28Ig fusion protein (human) (UniProt P10747); assay: competition of ^125I-B7Ig binding to immobilized CD28Ig
[7] = molecular target: CD28Ig fusion protein (human) (UniProt P10747); assay: competition of ^125I-B7Ig binding to immobilized CD28Ig by the unlabeled competitor
B7 antigen (human) [8] = molecular target: B7 antigen (human) (UniProt P33681); assay: flow cytometry, Raji cells; -cold minus +cold
B7 antigen (human) [9] = molecular target: B7 antigen (human) (UniProt P33681); assay: flow cytometry, 5E1 cells; -cold minus +cold
B7 antigen (human) [10] = molecular target: B7 antigen (human) (UniProt P33681); assay: flow cytometry, direct staining of 5E1 cells (positive for CD28 adhesion)
B7 antigen (human) [11] = molecular target: B7 antigen (human) (UniProt P33681); assay: flow cytometry, direct staining of Jijoye cells (positive for CD28 adhesion)
B7 antigen (human) [12] = molecular target: B7 antigen (human) (UniProt P33681); assay: flow cytometry, Daudi cells preincubated with unlabeled BB-1
B7 antigen (human) [13] = molecular target: B7 antigen (human) (UniProt P33681); assay: flow cytometry, HSB2 cells preincubated with unlabeled BB-1 (negative for CD28 adhesion)
B7 antigen (human) [14] = molecular target: B7 antigen (human) (UniProt P33681); assay: flow cytometry, direct staining of 1A2 cells (negative for CD28 adhesion; presence of B7 not shown)
B7 antigen (human) [15] = molecular target: B7 antigen (human) (UniProt P33681); assay: flow cytometry, direct staining of Daudi cells (positive for CD28 adhesion)
B7 antigen (human) [16] = molecular target: B7 antigen (human) (UniProt P33681); assay: flow cytometry, Daudi cells; -cold minus +cold
B7 antigen (human) [17] = molecular target: B7 antigen (human) (UniProt P33681); assay: flow cytometry, direct staining of T51 cells (positive for CD28 adhesion)
B7 antigen (human) [18] = molecular target: B7 antigen (human) (UniProt P33681); assay: flow cytometry, direct staining of Raji cells (positive for CD28 adhesion)
B7 antigen (human) [19] = molecular target: B7 antigen (human) (UniProt P33681); assay: flow cytometry, direct staining of HSB2 cells (negative for CD28 adhesion; presence of B7 not shown)
B7 antigen (human) [20] = molecular target: B7 antigen (human) (UniProt P33681); assay: flow cytometry, Namalwa cells (negative for CD28 adhesion); -cold minus +cold
B7 antigen (human) [21] = molecular target: B7 antigen (human) (UniProt P33681); assay: flow cytometry, CEM cells preincubated with unlabeled BB-1 (negative for CD28 adhesion)
B7 antigen (human) [22] = molecular target: B7 antigen (human) (UniProt P33681); assay: flow cytometry, THP-1 cells preincubated with unlabeled BB-1 (negative for CD28 adhesion)
B7 antigen (human) [23] = molecular target: B7 antigen (human) (UniProt P33681); assay: cell-based or functional assay
B7 antigen (human) [24] = molecular target: B7 antigen (human) (UniProt P33681); assay: flow cytometry, Jijoye cells; -cold minus +cold
B7 antigen (human) [25] = molecular target: B7 antigen (human) (UniProt P33681); assay: flow cytometry, direct staining of THP-1 cells (negative for CD28 adhesion; presence of B7 not shown)
B7 antigen (human) [26] = molecular target: B7 antigen (human) (UniProt P33681); assay: flow cytometry, 5E1 cells preincubated with unlabeled BB-1
B7 antigen (human) [27] = molecular target: B7 antigen (human) (UniProt P33681); assay: flow cytometry, 1A2 cells preincubated with unlabeled BB-1 (negative for CD28 adhesion)
B7 antigen (human) [28] = molecular target: B7 antigen (human) (UniProt P33681); assay: flow cytometry, Raji cells preincubated with unlabeled BB-1
B7 antigen (human) [29] = molecular target: B7 antigen (human) (UniProt P33681); assay: flow cytometry, HL60 cells preincubated with unlabeled BB-1 (negative for CD28 adhesion)
B7 antigen (human) [30] = molecular target: B7 antigen (human) (UniProt P33681); assay: flow cytometry, T51 cells; -cold minus +cold
[31] = molecular target: B7Ig fusion protein (human) (UniProt P33681); assay: competition of ^125I-B7Ig binding to immobilized CD28Ig by the unlabeled competitor
B7 antigen (human) [32] = molecular target: B7 antigen (human) (UniProt P33681); assay: flow cytometry, Jijoye cells preincubated with unlabeled BB-1
B7 antigen (human) [33] = molecular target: B7 antigen (human) (UniProt P33681); assay: flow cytometry, direct staining of Namalwa cells (negative for CD28 adhesion; presence of B7 not shown)
B7 antigen (human) [34] = molecular target: B7 antigen (human) (UniProt P33681); assay: flow cytometry, direct staining of HL60 cells (negative for CD28 adhesion; presence of B7 not shown)
B7 antigen (human) [35] = molecular target: B7 antigen (human) (UniProt P33681); assay: flow cytometry, T51 cells preincubated with unlabeled BB-1

## B7Ig fusion protein (from UniProt P33681 35-215; P01857 99-330) (Fc fusion)
[1]
  radioactivity bound without competitor: 7800 cpm
[2]
  pIC50: 6.55
CD28 receptor (human) [3]
  [^3H]-T incorporation of PBL, B7Ig (immob.), +Anti-CD3, Exp. 1: 174000 cpm
  [^3H]-T incorporation of PBL, B7Ig (immob.), -Anti-CD3, Exp. 1: 100 cpm

## Monoclonal antibody (mAb) 9.3 (anti-CD28)
CD28 receptor (human) [4]
  mean channel (linear fluorescence units) (linear fluorescence units): 116
CD28 receptor (human) [3]
  [^3H]-T incorporation of PBL, mAb 9.3 (immob.), +Anti-CD3, Exp. 1: 137000 cpm
  [^3H]-T incorporation of PBL, mAb 9.3 (immob.), -Anti-CD3, Exp. 1: 100 cpm
  [^3H]-T incorporation of PBL, mAb 9.3 (soln.), +Anti-CD3, Exp. 1: 156000 cpm
  [^3H]-T incorporation of PBL, mAb 9.3 (soln.), +Anti-CD3, Exp. 2: 75800 cpm
  [^3H]-T incorporation of PBL, mAb 9.3 (soln.), -Anti-CD3, Exp. 1: 300 cpm
  [^3H]-T incorporation of PBL, mAb 9.3 (soln.), -Anti-CD3, Exp. 2: 400 cpm
  adhesion of B7 transfected COS cells to CD28^+ CHO cells without EDTA, blocking by mAb 9.3: 40%
  adhesion of T51 cells to CD28^+ CHO cells, reduction by mAb 9.3 with EDTA: 93%
  adhesion of T51 cells to CD28^+ CHO cells, reduction by mAb 9.3 without EDTA: 62%
  half-maximal inhibition of CD28-mediated adhesion of PM lymphoblastoid cells to CD28^+ CHO cells: 10 nM
CD28 receptor (human) [5]
  mean channel (linear fluorescence units) (linear fluorescence units): 11.3
[6]
  fold more effective as a competitor than B7Ig: 65 fold
[7]
  pIC50: 8.37

## mAb 9.3 (Fab fragments)
CD28 receptor (human) [3]
  [^3H]-T incorporation of PHA blasts, stimulation B7^+ CHO, mAb 9.3 Fab: 132000 cpm

## mAb BB-1 (anti-B7) (antibody)
B7 antigen (human) [8]
  SPECIFIC BINDING (mean fluorescence): 4.3 linear units
B7 antigen (human) [9]
  SPECIFIC BINDING (mean fluorescence): 10.6 linear units
B7 antigen (human) [10]
  mean fluorescence, FITC-BB-1 -COLD: 13 linear units
B7 antigen (human) [11]
  mean fluorescence, FITC-BB-1 -COLD: 17.8 linear units
B7 antigen (human) [12]
  mean fluorescence, FITC-BB-1 +COLD: 2.8 linear units
B7 antigen (human) [13]
  mean fluorescence, FITC-BB-1 +COLD: 2.3 linear units
B7 antigen (human) [14]
  mean fluorescence, FITC-BB-1 -COLD: 4.5 linear units
B7 antigen (human) [15]
  mean fluorescence, FITC-BB-1 -COLD: 6.4 linear units
B7 antigen (human) [16]
  SPECIFIC BINDING (mean fluorescence): 3.6 linear units
B7 antigen (human) [17]
  mean fluorescence, FITC-BB-1 -COLD: 16.4 linear units
B7 antigen (human) [18]
  mean fluorescence, FITC-BB-1 -COLD: 7.1 linear units
B7 antigen (human) [19]
  mean fluorescence, FITC-BB-1 -COLD: 2.3 linear units
B7 antigen (human) [20]
  SPECIFIC BINDING (mean fluorescence): 1.6 linear units
B7 antigen (human) [21]
  mean fluorescence, FITC-BB-1 +COLD: 1.9 linear units
B7 antigen (human) [22]
  mean fluorescence, FITC-BB-1 +COLD: 3 linear units
B7 antigen (human) [23]
  [^3H]-T incorporation of PHA blasts, stimulation B7^+ CHO, mAb BB-1: 98300 cpm
  adhesion of Jijoye cells to CD28^+ CHO cells, blocking by mAb: 60%
B7 antigen (human) [24]
  SPECIFIC BINDING (mean fluorescence): 15 linear units
B7 antigen (human) [25]
  mean fluorescence, FITC-BB-1 -COLD: 3.1 linear units
B7 antigen (human) [26]
  mean fluorescence, FITC-BB-1 +COLD: 2.4 linear units
B7 antigen (human) [27]
  mean fluorescence, FITC-BB-1 +COLD: 4.3 linear units
B7 antigen (human) [28]
  mean fluorescence, FITC-BB-1 +COLD: 2.8 linear units
B7 antigen (human) [29]
  mean fluorescence, FITC-BB-1 +COLD: 3.1 linear units
B7 antigen (human) [30]
  SPECIFIC BINDING (mean fluorescence): 13.4 linear units
[31]
  pIC50: 6.85
B7 antigen (human) [32]
  mean fluorescence, FITC-BB-1 +COLD: 2.8 linear units
B7 antigen (human) [33]
  mean fluorescence, FITC-BB-1 -COLD: 3.8 linear units
B7 antigen (human) [34]
  mean fluorescence, FITC-BB-1 -COLD: 3.1 linear units
B7 antigen (human) [35]
  mean fluorescence, FITC-BB-1 +COLD: 3 linear units
